Laboratory results: US6897197 (ALBERT EINSTEIN COLLEGE OF MEDICINE OF YESHIVA UNIVERSITY, dated 2005)

Columns and labels:
[1] = biological target: T1, human MDM2, full length (CMV driven expression construct pCHDM1A) (human, UniProt Q00987 1-491); test: low stringency co-immunoprecipitation (anti-FLAG IP, anti-MDM2 Western blot), 293T cells transfected with MDM2 and p19FLAG
T1 construct: Expressed in transfected cells; also called HDM-2
Procedure: (§1) For immunoprecipitations, subconfluent 293T cells were transfected with 3 µg each of the appropriate expression constructs shown in FIG. 3, and 80 µg of Lipofectamine reagent (Gibco BRL). […] Untransfected 3T3-DM cells were lysed in a low stringency buffer as above.

[2] = biological target: T2, endogenous MDM2 of untransfected 3T3DM cells (UniProt P23804 1-489); test: anti-p19^ARF immunoprecipitation, anti-MDM2 Western blot, untransfected 3T3DM cells
T2 construct: 3T3DM is a mouse cell line; Detected with antibody 2A10; also called p90/p85
T2 sequence (P23804 whole entry): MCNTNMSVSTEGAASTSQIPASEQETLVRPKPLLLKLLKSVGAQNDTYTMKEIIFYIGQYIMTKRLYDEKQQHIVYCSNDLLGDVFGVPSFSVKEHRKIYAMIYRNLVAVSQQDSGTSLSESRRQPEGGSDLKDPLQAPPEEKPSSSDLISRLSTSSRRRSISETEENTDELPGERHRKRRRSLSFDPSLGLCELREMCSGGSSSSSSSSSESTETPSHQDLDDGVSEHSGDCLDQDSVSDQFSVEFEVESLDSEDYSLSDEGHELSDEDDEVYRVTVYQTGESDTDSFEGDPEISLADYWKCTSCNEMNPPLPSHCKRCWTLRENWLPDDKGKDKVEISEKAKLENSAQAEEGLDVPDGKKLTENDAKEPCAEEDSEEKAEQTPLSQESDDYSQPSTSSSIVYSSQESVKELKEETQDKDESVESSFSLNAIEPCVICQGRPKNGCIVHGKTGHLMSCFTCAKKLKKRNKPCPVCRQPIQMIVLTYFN
Procedure: as §1

T1 sequence (Q00987 whole entry): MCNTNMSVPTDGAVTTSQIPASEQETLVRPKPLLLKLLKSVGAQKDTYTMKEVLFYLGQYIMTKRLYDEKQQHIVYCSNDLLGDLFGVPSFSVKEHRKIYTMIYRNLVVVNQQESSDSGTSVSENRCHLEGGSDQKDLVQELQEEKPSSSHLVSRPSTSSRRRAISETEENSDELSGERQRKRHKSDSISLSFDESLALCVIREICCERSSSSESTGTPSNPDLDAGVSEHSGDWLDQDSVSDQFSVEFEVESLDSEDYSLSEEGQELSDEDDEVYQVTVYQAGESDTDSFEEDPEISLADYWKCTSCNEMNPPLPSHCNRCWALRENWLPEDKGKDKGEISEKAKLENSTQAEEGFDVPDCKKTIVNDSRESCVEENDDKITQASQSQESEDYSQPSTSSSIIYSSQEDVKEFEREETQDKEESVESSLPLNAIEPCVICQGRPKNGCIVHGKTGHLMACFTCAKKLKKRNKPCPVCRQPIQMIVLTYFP

B1: FLAG epitope-tagged p19^ARF protein (other, mouse, UniProt Q64364 1-169, looked up, not shown: small tags and cut ends)
chain: MGRRFLVTVRIQRAGRPLQERVFLVKFVRSRRPRTASCALAFVNMLLRLERILRRGPHRNPGPGDDDGQRSRSSSSAQLRCRFELRGPHYLLPPGARRSAGRLPGHAGGAARVRGSAGCARCLGSPAARLGPRAGTSRHRAIFAFRWVLFVFRWVVFVYRWERRPDRRA
notes: Expressed from pcDNA in transfected 293T, SAOS2 or HeLa cells; also called p19^FLAG; p19FLAG
B1: binds [1].

B2: endogenous p19^ARF of untransfected 3T3DM cells (other, UniProt Q64364 1-169, looked up)
chain: B1 chain
notes: Immunoprecipitated with rabbit polyclonal anti-p19^ARF antiserum
B2: binds [2].
